Experimental findings from patent US8586570 are described below.

PKCθ, sequence (Q04759 whole entry): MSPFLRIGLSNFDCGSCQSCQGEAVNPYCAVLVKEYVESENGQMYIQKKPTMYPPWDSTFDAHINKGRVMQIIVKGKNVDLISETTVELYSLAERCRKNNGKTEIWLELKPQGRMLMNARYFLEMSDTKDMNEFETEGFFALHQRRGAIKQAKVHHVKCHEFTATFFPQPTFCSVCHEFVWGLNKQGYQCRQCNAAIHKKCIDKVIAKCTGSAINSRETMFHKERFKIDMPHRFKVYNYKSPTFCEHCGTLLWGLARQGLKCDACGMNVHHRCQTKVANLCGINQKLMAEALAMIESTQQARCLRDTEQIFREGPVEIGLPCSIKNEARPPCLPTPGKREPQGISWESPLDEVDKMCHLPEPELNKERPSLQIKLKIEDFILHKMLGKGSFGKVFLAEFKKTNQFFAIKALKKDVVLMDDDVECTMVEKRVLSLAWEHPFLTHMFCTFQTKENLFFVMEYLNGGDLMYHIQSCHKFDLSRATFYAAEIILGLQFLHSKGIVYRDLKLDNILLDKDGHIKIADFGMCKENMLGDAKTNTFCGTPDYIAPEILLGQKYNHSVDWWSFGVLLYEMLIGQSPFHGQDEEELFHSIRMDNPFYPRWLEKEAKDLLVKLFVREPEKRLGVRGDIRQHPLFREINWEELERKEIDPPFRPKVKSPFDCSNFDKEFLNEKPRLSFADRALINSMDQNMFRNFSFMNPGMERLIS

Regarding PKCα, in the series with PKCα-S10, the Michaelis constant (KM) (usually the substrate concentration at which the rate is half of its maximum) worked out at 0.12 µM, the Vmax (µmol min^-1 mg^-1) (µmol min^-1 mg^-1) is 2.2 and the Vmax/KM was found to be 149000 min⁻¹ mg⁻¹. For the same substance, in the series with PKCα-S1, the KM was 8.6 µM, the Vmax (µmol min^-1 mg^-1) (µmol min^-1 mg^-1) turned out to be 5.9 and the Vmax/KM is 6200 min⁻¹ mg⁻¹. Further, in the series with PKCα-S9, the KM was determined as 0.093 µM, the Vmax (µmol min^-1 mg^-1) (µmol min^-1 mg^-1) is 1.8 and the Vmax/KM came out at 160000 min⁻¹ mg⁻¹.

As for PKCβI, the “phosphorylation activity (1 µM peptide, 2 ng kinase)” value (“phosphorylation activity” for short) in the series with PKCα-S10 was “PKCβI and PKCθ are slightly more active than PKCα”.

Regarding PKCβII, in the series with PKCα-S10, the “phosphorylation activity” value was “PKCβII and PKCγ have comparable activities to that of PKCα”.

As for PKCγ, the “phosphorylation activity” value in the series on PKCα-S10 was “PKCβII and PKCγ have comparable activities to that of PKCα”.

Turning to PKCδ, in the series with PKCα-S10, the “phosphorylation activity” value is “no activity is observed with PKCδ, PKCµ, and PKCν”.

With PKCε, the “phosphorylation activity” value in the series with PKCα-S10 was “very little activity is detected with PKCε, PKCζ, PKCη and PKCι”.

Regarding PKCη, the “phosphorylation activity” value with PKCα-S10 was “very little activity is detected with PKCε, PKCζ, PKCη and PKCι”.

With PKCθ, the “phosphorylation activity” value in the series on PKCα-S10 was “PKCβI and PKCθ are slightly more active than PKCα”.
